Experimental data taken from publication PMC11068011 (Science Advances, 2024).

Biological target: T1, Recombinant p47-GST (human, UniProt Q9UNZ2 1-370)
T1 construct: p47 (NSFL1C), recombinant, bought (Novus H00055968-P01); source: bought: Novus, H00055968-P01, purified from wheat germ
T1 sequence (looked up): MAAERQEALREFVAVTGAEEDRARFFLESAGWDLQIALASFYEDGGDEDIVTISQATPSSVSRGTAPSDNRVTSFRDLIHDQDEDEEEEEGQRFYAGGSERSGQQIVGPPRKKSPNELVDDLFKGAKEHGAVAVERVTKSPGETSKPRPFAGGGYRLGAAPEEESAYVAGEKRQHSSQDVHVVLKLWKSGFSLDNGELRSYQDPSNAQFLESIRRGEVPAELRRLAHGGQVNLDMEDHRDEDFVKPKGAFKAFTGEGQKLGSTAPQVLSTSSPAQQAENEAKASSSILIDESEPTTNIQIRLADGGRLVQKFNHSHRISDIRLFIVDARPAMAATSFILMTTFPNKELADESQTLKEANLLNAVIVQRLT
Assay: pull-down; In vitro binding assay: 1 μg p47-GST and 2 μg p37 (WT or SHP), with or without 2 μg purified VCP, 1 hour at 4°C, then glutathione beads 1 hour; 25 mM Hepes pH 7.4, 150 mM NaCl, 0.01% Triton X-100, 5% glycerol
Settings: both partners purified

- binding result: binds
B1: purified WT p37 (natural protein, human, UniProt Q14CS0 1-331, looked up)
chain: MAEGGGPEPGEQERRSSGPRPPSARDLQLALAELYEDEVKCKSSKSNRPKATVFKSPRTPPQRFYSSEHEYSGLNIVRPSTGKIVNELFKEAREHGAVPLNEATRASGDDKSKSFTGGGYRLGSSFCKRSEYIYGENQLQDVQILLKLWSNGFSLDDGELRPYNEPTNAQFLESVKRGEIPLELQRLVHGGQVNLDMEDHQDQEYIKPRLRFKAFSGEGQKLGSLTPEIVSTPSSPEEEDKSILNAVVLIDDSVPTTKIQIRLADGSRLIQRFNSTHRILDVRNFIVQSRPEFAALDFILVTSFPNKELTDESLTLLEADILNTVLLQQLK
notes: p37 (UBXN2B), human, wild type, from pGEX-6P-1 p37; also called p37 WT; p37WT; source: E. coli Rosetta 2 BL21 (DE3), purified (glutathione sepharose, eluted by PreScission cleavage)
